Data on 1 substance can be found in publication PMC5717070.

Broadly, the stoichiometry N is a count of units in the complex or per binding partner.

The test deals with Solanum tuberosum aspartic protease plant-specific insert (saposin-like domain), recombinant (Solanum tuberosum). The test is described as follows: AUC; sedimentation equilibrium, 26-28 uM PSI, 27 mM sodium phosphate pH 3.0, 140 mM NaCl, 20 °C, single ideal species model; monomer to dimer.

Consider “Solanum tuberosum aspartic protease plant-specific insert (saposin-like domain), recombinant (domain or fragment)”, for which the stoichiometry N stood at 2.
